# Test results: patent publication US20180155451A1 (published 2018)
# T1: FcγRIIb (human, UniProt P31994 43-217)
# T1 construct: extracellular domain; also called 2b; FcgRIIb
# T1 sequence (looked up): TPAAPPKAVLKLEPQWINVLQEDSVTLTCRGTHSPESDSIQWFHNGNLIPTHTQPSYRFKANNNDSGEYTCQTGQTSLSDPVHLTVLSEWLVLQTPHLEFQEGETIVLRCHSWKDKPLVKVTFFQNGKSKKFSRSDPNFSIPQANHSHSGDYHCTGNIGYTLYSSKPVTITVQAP
# Target: T1, FcγRIIb
# Assay: SPR (Biacore), binding relative to GpH7-B3/GpL16-k0 = 100
# Protocol: Analysis of interaction between objective antibody and the FcγR was carried out using Biacore T100 (GE Healthcare). HBS-EP+ (GE Healthcare) was used as the running buffer, and the measurement temperature was set to 25° C. Chips produced by immobilizing the antigen peptide by the amine coupling method to a Series S Sencor Chip CM5 (GE Healthcare), or alternatively, chips produced by allowing preliminarily biotinylated antigen peptides to interact with and immobilize onto a Series S Sensor Chip SA (certified) (GE Healthcare) were used. Antibodies of interest were captured onto an antigen peptide-immobilized chip, and allowed to interact to each FcγR diluted with running buffer. To regenerate and repeatedly use the chip, the antibodies captured on the chip were washed off by reacting 10 mM glycine-HCl, pH 1.5.
# The FcγR-binding activity of each antibody was assessed primarily using as an indicator the FcγR-binding activity and dissociation constant for FcγR.
row,Binder,Ho/Con_2b
1,"GpH7-B3 variant P238_03V/GpL16-k0 (antibody, human IgG1, kappa, also called Ho Ab P238_03V) heavy: not shown light: DIVMTQSPLSLPVTPGEPASISCQASESLVHSNRNTYLHWYLQKPGQSPQLLIYKVSNRFSGVPDRFSGSGSGTDFTLKISRVEAEDVGVYYCSQNTHVPPTFGQGTKVEIERTVAAPSVFIFPPSDEQLKSGTASVVCLLNNFYPREAKVQWKVDNALQSGNSQESVTEQDSKDSTYSLSSTLTLSKADYEKHKVYACEVTHQGLSSPVTKSFNRGEC",96.6 % of control
2,"GpH7-B3 variant P238_04F/GpL16-k0 (antibody, human IgG1, kappa, also called Ho Ab P238_04F) heavy: not shown light: DIVMTQSPLSLPVTPGEPASISCQASESLVHSNRNTYLHWYLQKPGQSPQLLIYKVSNRFSGVPDRFSGSGSGTDFTLKISRVEAEDVGVYYCSQNTHVPPTFGQGTKVEIERTVAAPSVFIFPPSDEQLKSGTASVVCLLNNFYPREAKVQWKVDNALQSGNSQESVTEQDSKDSTYSLSSTLTLSKADYEKHKVYACEVTHQGLSSPVTKSFNRGEC",209 % of control
3,"GpH7-B3 variant P238_06M/GpL16-k0 (antibody, human IgG1, kappa, also called Ho Ab P238_06M) heavy: not shown light: DIVMTQSPLSLPVTPGEPASISCQASESLVHSNRNTYLHWYLQKPGQSPQLLIYKVSNRFSGVPDRFSGSGSGTDFTLKISRVEAEDVGVYYCSQNTHVPPTFGQGTKVEIERTVAAPSVFIFPPSDEQLKSGTASVVCLLNNFYPREAKVQWKVDNALQSGNSQESVTEQDSKDSTYSLSSTLTLSKADYEKHKVYACEVTHQGLSSPVTKSFNRGEC",97.1 % of control
4,"GpH7-B3 variant P238_09D/GpL16-k0 (antibody, human IgG1, kappa, also called Ho Ab P238_09D) heavy: not shown light: DIVMTQSPLSLPVTPGEPASISCQASESLVHSNRNTYLHWYLQKPGQSPQLLIYKVSNRFSGVPDRFSGSGSGTDFTLKISRVEAEDVGVYYCSQNTHVPPTFGQGTKVEIERTVAAPSVFIFPPSDEQLKSGTASVVCLLNNFYPREAKVQWKVDNALQSGNSQESVTEQDSKDSTYSLSSTLTLSKADYEKHKVYACEVTHQGLSSPVTKSFNRGEC",207 % of control
5,"GpH7-B3 variant P238_10E/GpL16-k0 (antibody, human IgG1, kappa, also called Ho Ab P238_10E) heavy: not shown light: DIVMTQSPLSLPVTPGEPASISCQASESLVHSNRNTYLHWYLQKPGQSPQLLIYKVSNRFSGVPDRFSGSGSGTDFTLKISRVEAEDVGVYYCSQNTHVPPTFGQGTKVEIERTVAAPSVFIFPPSDEQLKSGTASVVCLLNNFYPREAKVQWKVDNALQSGNSQESVTEQDSKDSTYSLSSTLTLSKADYEKHKVYACEVTHQGLSSPVTKSFNRGEC",97.9 % of control
6,"GpH7-B3 variant P238_15Y/GpL16-k0 (antibody, human IgG1, kappa, also called Ho Ab P238_15Y) heavy: not shown light: DIVMTQSPLSLPVTPGEPASISCQASESLVHSNRNTYLHWYLQKPGQSPQLLIYKVSNRFSGVPDRFSGSGSGTDFTLKISRVEAEDVGVYYCSQNTHVPPTFGQGTKVEIERTVAAPSVFIFPPSDEQLKSGTASVVCLLNNFYPREAKVQWKVDNALQSGNSQESVTEQDSKDSTYSLSSTLTLSKADYEKHKVYACEVTHQGLSSPVTKSFNRGEC",114 % of control
7,"GpH7-B3 variant P238_16H/GpL16-k0 (antibody, human IgG1, kappa, also called Ho Ab P238_16H) heavy: not shown light: DIVMTQSPLSLPVTPGEPASISCQASESLVHSNRNTYLHWYLQKPGQSPQLLIYKVSNRFSGVPDRFSGSGSGTDFTLKISRVEAEDVGVYYCSQNTHVPPTFGQGTKVEIERTVAAPSVFIFPPSDEQLKSGTASVVCLLNNFYPREAKVQWKVDNALQSGNSQESVTEQDSKDSTYSLSSTLTLSKADYEKHKVYACEVTHQGLSSPVTKSFNRGEC",18.8 % of control
8,"GpH7-B3 variant P238_19Q/GpL16-k0 (antibody, human IgG1, kappa, also called Ho Ab P238_19Q) heavy: not shown light: DIVMTQSPLSLPVTPGEPASISCQASESLVHSNRNTYLHWYLQKPGQSPQLLIYKVSNRFSGVPDRFSGSGSGTDFTLKISRVEAEDVGVYYCSQNTHVPPTFGQGTKVEIERTVAAPSVFIFPPSDEQLKSGTASVVCLLNNFYPREAKVQWKVDNALQSGNSQESVTEQDSKDSTYSLSSTLTLSKADYEKHKVYACEVTHQGLSSPVTKSFNRGEC",42.7 % of control
9,"GpH7-B3 variant P238_20W/GpL16-k0 (antibody, human IgG1, kappa, also called Ho Ab P238_20W) heavy: not shown light: DIVMTQSPLSLPVTPGEPASISCQASESLVHSNRNTYLHWYLQKPGQSPQLLIYKVSNRFSGVPDRFSGSGSGTDFTLKISRVEAEDVGVYYCSQNTHVPPTFGQGTKVEIERTVAAPSVFIFPPSDEQLKSGTASVVCLLNNFYPREAKVQWKVDNALQSGNSQESVTEQDSKDSTYSLSSTLTLSKADYEKHKVYACEVTHQGLSSPVTKSFNRGEC",12.6 % of control

# Now from value to binder:
row,Ho/Con_2b,Binder
1,100 % of control,"GpH7-B3 variant P271_09D/GpL16-k0 (antibody, human IgG1, kappa, also called Ho Ab P271_09D) heavy: not shown light: DIVMTQSPLSLPVTPGEPASISCQASESLVHSNRNTYLHWYLQKPGQSPQLLIYKVSNRFSGVPDRFSGSGSGTDFTLKISRVEAEDVGVYYCSQNTHVPPTFGQGTKVEIERTVAAPSVFIFPPSDEQLKSGTASVVCLLNNFYPREAKVQWKVDNALQSGNSQESVTEQDSKDSTYSLSSTLTLSKADYEKHKVYACEVTHQGLSSPVTKSFNRGEC"
2,95 % of control,"GpH7-B3 variant P271_10E/GpL16-k0 (antibody, human IgG1, kappa, also called Ho Ab P271_10E) heavy: not shown light: DIVMTQSPLSLPVTPGEPASISCQASESLVHSNRNTYLHWYLQKPGQSPQLLIYKVSNRFSGVPDRFSGSGSGTDFTLKISRVEAEDVGVYYCSQNTHVPPTFGQGTKVEIERTVAAPSVFIFPPSDEQLKSGTASVVCLLNNFYPREAKVQWKVDNALQSGNSQESVTEQDSKDSTYSLSSTLTLSKADYEKHKVYACEVTHQGLSSPVTKSFNRGEC"
3,86.6 % of control,"GpH7-B3 variant P331_03V/GpL16-k0 (antibody, human IgG1, kappa, also called Ho Ab P331_03V) heavy: not shown light: DIVMTQSPLSLPVTPGEPASISCQASESLVHSNRNTYLHWYLQKPGQSPQLLIYKVSNRFSGVPDRFSGSGSGTDFTLKISRVEAEDVGVYYCSQNTHVPPTFGQGTKVEIERTVAAPSVFIFPPSDEQLKSGTASVVCLLNNFYPREAKVQWKVDNALQSGNSQESVTEQDSKDSTYSLSSTLTLSKADYEKHKVYACEVTHQGLSSPVTKSFNRGEC"
4,71.5 % of control,"GpH7-B3 variant P331_06M/GpL16-k0 (antibody, human IgG1, kappa, also called Ho Ab P331_06M) heavy: not shown light: DIVMTQSPLSLPVTPGEPASISCQASESLVHSNRNTYLHWYLQKPGQSPQLLIYKVSNRFSGVPDRFSGSGSGTDFTLKISRVEAEDVGVYYCSQNTHVPPTFGQGTKVEIERTVAAPSVFIFPPSDEQLKSGTASVVCLLNNFYPREAKVQWKVDNALQSGNSQESVTEQDSKDSTYSLSSTLTLSKADYEKHKVYACEVTHQGLSSPVTKSFNRGEC"
5,63.3 % of control,"GpH7-B3 variant P331_07I/GpL16-k0 (antibody, human IgG1, kappa, also called Ho Ab P331_07I) heavy: not shown light: DIVMTQSPLSLPVTPGEPASISCQASESLVHSNRNTYLHWYLQKPGQSPQLLIYKVSNRFSGVPDRFSGSGSGTDFTLKISRVEAEDVGVYYCSQNTHVPPTFGQGTKVEIERTVAAPSVFIFPPSDEQLKSGTASVVCLLNNFYPREAKVQWKVDNALQSGNSQESVTEQDSKDSTYSLSSTLTLSKADYEKHKVYACEVTHQGLSSPVTKSFNRGEC"
6,92.3 % of control,"GpH7-B3 variant P331_10E/GpL16-k0 (antibody, human IgG1, kappa, also called Ho Ab P331_10E) heavy: not shown light: DIVMTQSPLSLPVTPGEPASISCQASESLVHSNRNTYLHWYLQKPGQSPQLLIYKVSNRFSGVPDRFSGSGSGTDFTLKISRVEAEDVGVYYCSQNTHVPPTFGQGTKVEIERTVAAPSVFIFPPSDEQLKSGTASVVCLLNNFYPREAKVQWKVDNALQSGNSQESVTEQDSKDSTYSLSSTLTLSKADYEKHKVYACEVTHQGLSSPVTKSFNRGEC"
7,111 % of control,"GpH7-B3 variant P331_15Y/GpL16-k0 (antibody, human IgG1, kappa, also called Ho Ab P331_15Y) heavy: not shown light: DIVMTQSPLSLPVTPGEPASISCQASESLVHSNRNTYLHWYLQKPGQSPQLLIYKVSNRFSGVPDRFSGSGSGTDFTLKISRVEAEDVGVYYCSQNTHVPPTFGQGTKVEIERTVAAPSVFIFPPSDEQLKSGTASVVCLLNNFYPREAKVQWKVDNALQSGNSQESVTEQDSKDSTYSLSSTLTLSKADYEKHKVYACEVTHQGLSSPVTKSFNRGEC"
8,100 % of control,"GpH7-B3 variant P331_16H/GpL16-k0 (antibody, human IgG1, kappa, also called Ho Ab P331_16H) heavy: not shown light: DIVMTQSPLSLPVTPGEPASISCQASESLVHSNRNTYLHWYLQKPGQSPQLLIYKVSNRFSGVPDRFSGSGSGTDFTLKISRVEAEDVGVYYCSQNTHVPPTFGQGTKVEIERTVAAPSVFIFPPSDEQLKSGTASVVCLLNNFYPREAKVQWKVDNALQSGNSQESVTEQDSKDSTYSLSSTLTLSKADYEKHKVYACEVTHQGLSSPVTKSFNRGEC"
9,111 % of control,"GpH7-B3 variant P331_20W/GpL16-k0 (antibody, human IgG1, kappa, also called Ho Ab P331_20W) heavy: not shown light: DIVMTQSPLSLPVTPGEPASISCQASESLVHSNRNTYLHWYLQKPGQSPQLLIYKVSNRFSGVPDRFSGSGSGTDFTLKISRVEAEDVGVYYCSQNTHVPPTFGQGTKVEIERTVAAPSVFIFPPSDEQLKSGTASVVCLLNNFYPREAKVQWKVDNALQSGNSQESVTEQDSKDSTYSLSSTLTLSKADYEKHKVYACEVTHQGLSSPVTKSFNRGEC"
10,108 % of control,"GpH7-B3 variant S239_03V/GpL16-k0 (antibody, human IgG1, kappa, also called Ho Ab S239_03V) heavy: not shown light: DIVMTQSPLSLPVTPGEPASISCQASESLVHSNRNTYLHWYLQKPGQSPQLLIYKVSNRFSGVPDRFSGSGSGTDFTLKISRVEAEDVGVYYCSQNTHVPPTFGQGTKVEIERTVAAPSVFIFPPSDEQLKSGTASVVCLLNNFYPREAKVQWKVDNALQSGNSQESVTEQDSKDSTYSLSSTLTLSKADYEKHKVYACEVTHQGLSSPVTKSFNRGEC"
11,61 % of control,"GpH7-B3 variant S239_05P/GpL16-k0 (antibody, human IgG1, kappa, also called Ho Ab S239_05P) heavy: not shown light: DIVMTQSPLSLPVTPGEPASISCQASESLVHSNRNTYLHWYLQKPGQSPQLLIYKVSNRFSGVPDRFSGSGSGTDFTLKISRVEAEDVGVYYCSQNTHVPPTFGQGTKVEIERTVAAPSVFIFPPSDEQLKSGTASVVCLLNNFYPREAKVQWKVDNALQSGNSQESVTEQDSKDSTYSLSSTLTLSKADYEKHKVYACEVTHQGLSSPVTKSFNRGEC"
12,84.3 % of control,"GpH7-B3 variant S239_06M/GpL16-k0 (antibody, human IgG1, kappa, also called Ho Ab S239_06M) heavy: not shown light: DIVMTQSPLSLPVTPGEPASISCQASESLVHSNRNTYLHWYLQKPGQSPQLLIYKVSNRFSGVPDRFSGSGSGTDFTLKISRVEAEDVGVYYCSQNTHVPPTFGQGTKVEIERTVAAPSVFIFPPSDEQLKSGTASVVCLLNNFYPREAKVQWKVDNALQSGNSQESVTEQDSKDSTYSLSSTLTLSKADYEKHKVYACEVTHQGLSSPVTKSFNRGEC"
